Test results: patent US20230121197A1, “ANTIBODIES SPECIFICALLY BINDING THE CARBOXYMETHYLATED CATALYTIC SUBUNIT OF PROTEIN PHOSPHATASE 2A” (Medizinische Universität Wien, priority 2020, published 2023)

What was measured:
[1] = molecular target: T1, carboxymethylated PP2Ac C-terminal peptide (ac-[…]-CH3) (Homo sapiens, UniProt P67775); experiment: Surface plasmon resonance (Biacore T200), steady state analysis, carboxymethylated PP2Ac peptide; format: binding
T1 construct: The following 11-mer peptides corresponding to the carboxymethylated or non-methylated carboxy-terminus of PP2A and PP4 catalytic subunits were used as antigens
Experimental: (§1) The differential affinity of anti-carboxymethylated PP2Ac antibodies, 7C10-C5 and 2A10, to carboxymethylated PP2A catalytic subunit versus noncarboxymethylated PP2A catalytic subunit was determined by surface plasmon resonance (SPR) on a Biacore T200 (GE Healthcare) at the Core Facility Biomolecular & Cellular Analysis (University of Natural Resources and Life Sciences Vienna BOKU). The affinity of 7C10-C5 for carboxymethylated and noncarboxymethylated catalytic subunit of PP4 (PP4c), a PP2A-related phosphatase, was also determined. […] The KD of the binding of 7C10-C5 (or 2A10) to non-carboxymethylated PP2Ac or PP4c could not be determined because at the highest analyte sample concentration (5000 nM) only very weak binding signals were detected indicating KD values of at least >5000 nM or higher. […]
(§2) SPR experiments were performed with the BiacoreT200 instrument (Cytiva). […] The sensorgrams obtained were analyzed with BiacoreT200 Evaluation Software (version 3.1). […]

[2] = molecular target: T2, non-carboxymethylated PP2Ac (ac-[…]-OH) (Homo sapiens, UniProt P67775); experiment: Surface plasmon resonance (Biacore T200), non-carboxymethylated PP2Ac peptide; format: binding; settings: SPR
T2 construct: The following 11-mer peptides corresponding to the carboxymethylated or non-methylated carboxy-terminus of PP2A and PP4 catalytic subunits were used as antigens
Experimental: as §1, §2

[3] = molecular target: T3, PP2Ac C-terminal peptide meL309, ac-HVTRRTPDYFL-CH3 (α-carboxymethylated) (human, SMILES …); experiment: ELISA, peptide coated at 2 µg/ml, supernatant 1:50
T3 construct: also called Y307-meL309; mePP2Ac
T3 peptide: Ac-HVTRRTPDYFL-OMe
Experimental: Nunc Medisorp 96-well ELISA flat-bottom plates were coated with peptides L309 (ac-[…]) (SEQ ID NO:18), meL309 (ac-[…]-CH₃) (SEQ ID NO:18) or amL309 (ac-[…]-NH₂) (SEQ ID NO:18) at 2 μg/ml in TBS at 4° C. over-night. After washing once with TBS, the wells were incubated with 2% BSA in TBS for 1 h at RT. After washing once with TBS, the wells were incubated with single clone hybridoma cell culture supernatant clone 7C10-C5 1:50 (˜1 μg/ml) in 1% BSA/TBS for 1 h at RT. After washing twice with TBS, wells were incubated with anti-mouse HRP-coupled secondary antibody for 1 h at RT, followed by washing 3× in PBS. Bound antibodies were detected by colorimetric reaction with 3,3′,5,5′-Tetramethylbenzidine as substrate, and absorbance was measured at 450 nm. Values were normalized to meL309 which was set to 1. Average and standard deviation of N=8 experiments are shown. Statistical significance was assessed using ANOVA followed by Tukey's HSD as a post-hoc test. P values are indicated with *, **, ***, which correspond to values of <0.05, <0.01, and <0.001.
Specifically, flat-bottom Nunc-Immuno Medisorp 96-well ELISA plates (Thermo; 467320) were coated o/n at 4° C. with 50 μl of either a peptide of the sequence ac-[…]-OH (L309; unmodified) (SEQ ID NO:18) at a concentration of 2 μg/ml, a peptide of the sequence ac-[…]-CH₃ (meL309; methylated) (SEQ ID NO:18) at a concentration of 2 μg/ml in TBS (137 mM NaCl (AppliChem, #131659, 2.7 mM KCl (AppliChem, #131494), 24.8 mM Tris (AppliChem, #A1086), pH 7.4 with HCl) or a peptide of the sequence ac-[…]-NH₂ (amL309; amidated) (SEQ ID NO:18) at a concentration of 2 μg/ml in TBS. Of note, the “ac-” in the peptides described here and in other Examples refers to an acetylated N-terminus. Said acetylation neutralizes the positive charge at the N-terminus, and the free charged N-terminus is thereby removed.

B1: 7C10-C5: α-carboxymethylation specific mouse monoclonal IgG1 antibody from single clone hybridoma 7C10-C5 (DSM ACC3350) (antibody)
heavy: MYRMQLLSCIALSLALVTNSDVQLQESGPGLVKPSQSLSLTCSVTGYSITSGYYWNWIRQFPGNKLEWMGYISYDGSNNYNPSLKNRISITRDTSKNQFFLKLNSVTTEDTATYYCAGRFAYWGQGTLVTVSAAKTTAPSVYPLAPVCGDTTGSSVTLGCLVKGYFPEPVTLTWNSGSLSSGVHTFPAVLQSDLYTLSSSVTVTSSTWPSQSITCNVAHPASSTKVDKKIEPRGPTIKPCPPCKCPAPNLLGGPSVFIFPPKIKDVLMISLSPIVTCVVVDVSEDDPDVQISWFVNNVEVHTAQTQTHREDYNSTLRVVSALPIQHQDWMSGKEFKCKVNNKDLPAPIERTISKPKGSVRAPQVYVLPPPEEEMTKKQVTLTCMVTDFMPEDIYVEWTNNGKTELNYKNTEPVLDSDGSYFMYSKLRVEKKNWVERNSYSCSVVHEGLHNHHTTKSFSRTPGK
light: MDMRVPAQLLGLLLLWLSGARCDVLMTQTPLSLPVSLGDQASISCRSSQSIVHSNGNTYLEWYLQKPGQSPKLLIYKVSNRFSGVPDRFSGSGSGTDFTLKINRVEAEDLGVYYCFQGSHVPWTFGGGTKLEIKADAAPTVSIFPPSSEQLTSGGASVVCFLNNFYPKDINVKWKIDGSERQNGVLNSWTDQDSKDSTYSMSSTLTLTKDEYERHNSYTCEATHKTSTSPIVKSFNRNEC
modifications: Amino acid sequence of the recombinant 7C10-C5 heavy chain; Amino acid sequence of the recombinant 7C10-C5 light chain
Kd ([1]; SPR steady-state affinity model, carboxymethylated PP2Ac 11-mer peptide (SEQ ID NO:18)): ≤ 20 nM | Rmax ([1]; steady state analysis, PP2A Me peptide, 360 sec contact time, 40 μL/min): 25.14 RU | binding to carboxymethylated PP2Ac stronger than to non-carboxymethylated PP2Ac [2]: at least 400 fold | binding to non-carboxymethylated PP2Ac [2]: does not bind to non-carboxymethylated PP2Ac to a measureable extent

B2: 7C10-C5 monoclonal antibody (antibody, V domains shown)
VH: DVQLQESGPGLVKPSQSLSLTCSVTGYSITSGYYWNWIRQFPGNKLEWMGYISYDGSNNYNPSLKNRISITRDTSKNQFFLKLNSVTTEDTATYYCAGRFAYWGQGTLVTVSA
VL: DVLMTQTPLSLPVSLGDQASISCRSSQSIVHSNGNTYLEWYLQKPGQSPKLLIYKVSNRFSGVPDRFSGSGSGTDFTLKINRVEAEDLGVYYCFQGSHVPWTFGGGTKLEIK
notes: Used as hybridoma culture supernatant (ELISA, Western blot, IHC) or at 50 µg/mL (SPR); also called 7C10 X63; clone 7C10-C5
fold higher ELISA signal intensity than with the amidated peptide (amL309) [3]: 6 fold | fold higher ELISA signal intensity than with the non-methylated peptide (L309) [3]: 26 fold | fold higher ELISA signal intensity than with the α-carboxymethylated PP4c peptide (meL307) [3]: ≥ 10 fold
